Laboratory results published in publication doi:10.1101/2023.12.19.572309 (bioRxiv, 2023).

Target: ATG16L1-(StrepII^2x)ATG5–ATG12 complex (UniProt Q676U5;Q9H1Y0;O94817)
Test: BLI

Sequence of ATG16L1-(StrepII^2x)ATG5–ATG12 complex (Q676U5 whole entry, chain 1 of 3): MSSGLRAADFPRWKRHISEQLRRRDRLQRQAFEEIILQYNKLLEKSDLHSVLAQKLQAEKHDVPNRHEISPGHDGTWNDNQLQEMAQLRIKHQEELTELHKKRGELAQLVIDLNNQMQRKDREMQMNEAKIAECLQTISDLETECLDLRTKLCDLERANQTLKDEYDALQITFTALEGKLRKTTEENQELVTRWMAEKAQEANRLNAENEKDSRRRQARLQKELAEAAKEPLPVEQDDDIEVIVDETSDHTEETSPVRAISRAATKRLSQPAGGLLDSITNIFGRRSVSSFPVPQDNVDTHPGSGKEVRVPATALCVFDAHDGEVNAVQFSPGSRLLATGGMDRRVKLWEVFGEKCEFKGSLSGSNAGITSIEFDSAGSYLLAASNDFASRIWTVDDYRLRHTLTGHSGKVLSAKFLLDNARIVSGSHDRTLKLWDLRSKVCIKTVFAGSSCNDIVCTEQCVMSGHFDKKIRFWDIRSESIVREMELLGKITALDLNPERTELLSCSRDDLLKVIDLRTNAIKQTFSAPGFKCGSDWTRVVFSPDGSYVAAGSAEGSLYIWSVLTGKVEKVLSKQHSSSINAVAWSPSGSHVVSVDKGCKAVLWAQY
Sequence of ATG16L1-(StrepII^2x)ATG5–ATG12 complex (Q9H1Y0 whole entry, chain 2 of 3): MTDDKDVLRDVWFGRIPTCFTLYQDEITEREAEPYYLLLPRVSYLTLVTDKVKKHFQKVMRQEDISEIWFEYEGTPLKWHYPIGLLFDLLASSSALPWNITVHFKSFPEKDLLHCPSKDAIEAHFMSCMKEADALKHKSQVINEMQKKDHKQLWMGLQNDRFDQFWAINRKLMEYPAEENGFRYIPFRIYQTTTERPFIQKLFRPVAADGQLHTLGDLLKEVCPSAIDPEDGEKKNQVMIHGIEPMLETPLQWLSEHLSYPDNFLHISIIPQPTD
Sequence of ATG16L1-(StrepII^2x)ATG5–ATG12 complex (O94817 whole entry, chain 3 of 3): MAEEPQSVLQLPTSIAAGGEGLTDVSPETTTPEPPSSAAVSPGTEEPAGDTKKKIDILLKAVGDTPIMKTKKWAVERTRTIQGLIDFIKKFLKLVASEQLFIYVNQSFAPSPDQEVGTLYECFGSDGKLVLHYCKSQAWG

B1: 6xHis-3xFLAG-V1H(1-351) (domain or fragment)
chain: MTKMDIRGAVDAAVPTNIIAAKAAEVRANKVNWQSYLQGQMISAEDCEFIQRFEMKRSPEEKQEMLQTEGSQCAKTFINLMTHICKEQTVQYILTMVDDMLQENHQRVSIFFDYARCSKNTAWPYFLPMLNRQDPFTVHMAARIIAKLAAWGKELMEGSDLNYYFNWIKTQLSSQKLRGSGVAVETGTVSSSDSSQYVQCVAGCLQLMLRVNEYRFAWVEADGVNCIMGVLSNKCGFQLQYQMIFSIWLLAFSPQMCEHLRRYNIIPVLSDILQESVKEKVTRIILAAFRNFLEKSTERETRQEYALAMIQCKVLKQLENLEQQKYDDEDISEDIKFLLEKLGESVQDLSS
Question: Which Kd does the source give for B1 here?
Answer: 9.2 µM
